What was measured:
[1] = biological target: recombinant ADAM10 ECD (species not stated); assay: cell-based or functional assay
[2] = biological target: T1, human ADAM10 expressed on the cell surface (LIM1215, COLO205, HEK293, HEK293 transfected with full-length … (human, UniProt O14672 214-748)); assay: cell-based ELISA, 1H5 signal normalised to mAb1427 signal
T1 construct: whole, on cells; also called tumor-expressed ADAM10; ADAM10 expressed on HEK293 cells
T1 sequence (looked up): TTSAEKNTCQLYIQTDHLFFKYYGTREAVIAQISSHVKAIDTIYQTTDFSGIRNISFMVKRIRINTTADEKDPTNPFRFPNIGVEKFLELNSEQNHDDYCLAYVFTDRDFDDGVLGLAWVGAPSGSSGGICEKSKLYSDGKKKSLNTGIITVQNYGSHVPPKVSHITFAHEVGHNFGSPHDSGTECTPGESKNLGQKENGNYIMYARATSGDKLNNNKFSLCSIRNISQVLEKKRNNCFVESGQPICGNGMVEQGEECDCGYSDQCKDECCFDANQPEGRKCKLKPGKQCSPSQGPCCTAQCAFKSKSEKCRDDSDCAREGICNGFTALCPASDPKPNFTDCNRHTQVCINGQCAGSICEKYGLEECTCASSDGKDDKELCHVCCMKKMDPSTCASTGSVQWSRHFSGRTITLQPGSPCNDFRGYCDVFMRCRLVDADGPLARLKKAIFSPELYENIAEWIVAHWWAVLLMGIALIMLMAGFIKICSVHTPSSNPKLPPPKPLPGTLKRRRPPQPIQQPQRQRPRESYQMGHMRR
Method: Briefly, 5×10⁴ cells/well were immobilized on 96-well ELISA plates (Greiner bio-one) with 1% paraformaldehyde for 2 hours at 37° C. The plate was washed thrice with PBS and blocked for 2 hours at room temperature with 4% non-fat dry milk. The anti-ADAM10 mAbs were added in varying concentrations. […] The data was recorded at 450 nm.

[3] = biological target: T2, bovine ADAM10 disintegrin+cysteine-rich domain construct (D+C, residues 455-646) (bovine, UniProt Q10741 455-646); assay: ELISA, 1H5 IgG titrated on immobilised bovine ADAM10 D+C, absorbance 450 nm [cont.) E]
T2 construct: range 455-646; also called ADAM10 D+C (b); bovine (b) ADAM10 D+C
T2 sequence (looked up): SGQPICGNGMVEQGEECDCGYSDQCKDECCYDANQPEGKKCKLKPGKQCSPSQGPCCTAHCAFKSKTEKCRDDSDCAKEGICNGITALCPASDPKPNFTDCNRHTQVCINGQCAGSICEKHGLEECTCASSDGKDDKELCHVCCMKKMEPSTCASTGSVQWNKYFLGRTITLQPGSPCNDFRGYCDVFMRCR

[4] = biological target: T3, recombinant ADAM10 ECD (species not stated); assay: biolayer interferometry (data not shown)
T3 construct: extracellular domain; also called full recombinant ADAM10 ECD

[5] = biological target: T4, ADAM10 D+C domains construct (species not stated) (Bos taurus (Bovine), UniProt Q10741 455-646); assay: biolayer interferometry (data not shown)
T4 construct: also called ADAM10 D+C antigen; isolated recombinant ADAM10 D+C region
T4 sequence: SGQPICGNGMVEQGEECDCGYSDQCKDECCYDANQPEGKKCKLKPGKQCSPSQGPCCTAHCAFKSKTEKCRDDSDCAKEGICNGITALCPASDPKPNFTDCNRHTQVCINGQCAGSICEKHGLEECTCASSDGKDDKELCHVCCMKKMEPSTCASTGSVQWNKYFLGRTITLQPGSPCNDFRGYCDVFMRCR

[6] = biological target: T5, human ADAM10 D+C (455-650) (human, UniProt O14672 455-650); assay: ELISA, 1H5 IgG titrated on immobilised human ADAM10 D+C, absorbance 450 nm [cont.) E]
T5 construct: range 455-650; also called human (h) ADAM10 D+C; human (h) ADAM10 D-C
T5 sequence (looked up): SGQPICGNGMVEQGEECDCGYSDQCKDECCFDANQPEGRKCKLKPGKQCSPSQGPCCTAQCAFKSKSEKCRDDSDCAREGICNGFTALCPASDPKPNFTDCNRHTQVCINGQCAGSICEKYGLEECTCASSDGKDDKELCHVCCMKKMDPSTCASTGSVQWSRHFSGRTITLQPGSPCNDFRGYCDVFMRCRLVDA

[7] = biological target: T4, ADAM10 D+C domains construct (species …); assay: ELISA, 1H5 Fab titrated on ADAM10 D+C, absorbance 450 nm
Method: To perform the competitive ELISA, wells were coated with 100 μl of ADAM10 D+C (concentration 2 μg/ml). After washes with phosphate buffer solution (PBS), the wells were blocked with 4% non-fat dry milk. […] Color was developed using a TMB substrate kit and data was recorded at 450 nm. […] The final concentration of each mAb in the mixture was the same as when added individually. The mixture was added to the wells and incubated for 1 hour.

B1: 1H5 IgG (fully human anti-ADAM10 monoclonal antibody) (antibody, V domains shown)
VH: QVQLVESGGGLVKPGGSLRLSCAASGFTFSDYYMSWIRQAPGKGLEWVSYISSSGSTIYYADSVKGRFTISRDNAKNSLYLQMNSLRAEDTAVYYCARDFYDSKIFDYWGQGTLVTVSS
VL: DIQMTQSPSSLSASVGDRVTITCRASQSISSYLNWYQQKPGKAPKLLIYAASSLQSGVPSRFSGSGSGTDFTLTISSLQPEDVGVYYCMEGLKTPFTFGPGTKLEIKR
notes: the amino acid entries 14 and 15 are used here; also called 1H5 mAb; mAb 1H5
For B1, the “augmentation of fluorogenic substrate peptide cleavage, relative to 8C7” value [1] was roughly 2 fold, the “fold better binding to tumor-expressed ADAM10 than to ADAM10 expressed on HEK293 cells” value [2] was roughly 14 fold and the “EC50 (read off the curve)” value [3] was roughly 3 nM. The Kd [4] was roughly 200 nM, the Kd [5] was 3.3 nM and the “EC50 (read off the curve)” value [6] was roughly 3 nM.

B2: 1H5 Fab (Fab, V domains shown)
VH: QVQLVESGGGLVKPGGSLRLSCAASGFTFSDYYMSWIRQAPGKGLEWVSYISSSGSTIYYADSVKGRFTISRDNAKNSLYLQMNSLRAEDTAVYYCARDFYDSKIFDYWGQGTLVTVSS
VL: DIQMTQSPSSLSASVGDRVTITCRASQSISSYLNWYQQKPGKAPKLLIYAASSLQSGVPSRFSGSGSGTDFTLTISSLQPEDVGVYYCMEGLKTPFTFGPGTKLEIKR
notes: also called 1H5 Fab fragment; Fab fragment of 1H5
B2 was tested, and the EC50 [7] was 15 nM.

Source: US20260167677A1 (Memorial Sloan Kettering, published 2026)
